Measured values from article PMC6612188.
Residue numbers refer to the chain shown, from its start.

Key:
[1] = target: T1, VraR (unphosphorylated) (Staphylococcus aureus) (UniProt Q7A2Q1); assay: DNase I footprinting; conditions: 10 mM Tris pH 7.5, 50 mM KCl, 1 mM DTT, 10 mM MgCl2, 50% glycerol, 20 ng/ul herring sperm DNA; 2 ng amplicon; protein 0-50 uM; temperature not stated
T1 sequence: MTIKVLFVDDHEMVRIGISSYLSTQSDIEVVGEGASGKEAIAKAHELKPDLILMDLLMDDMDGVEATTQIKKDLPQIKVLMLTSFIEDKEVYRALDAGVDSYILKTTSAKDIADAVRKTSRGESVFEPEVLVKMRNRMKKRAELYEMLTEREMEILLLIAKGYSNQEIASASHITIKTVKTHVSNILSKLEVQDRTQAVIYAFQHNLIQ

[2] = target: T2, VraRM13A (unphosphorylated) M13A (Staphylococcus aureus) (UniProt Q7A2Q1); assay: DNase I footprinting; conditions: 10 mM Tris pH 7.5, 50 mM KCl, 1 mM DTT, 10 mM MgCl2, 50% glycerol, 20 ng/ul herring sperm DNA; 2 ng amplicon; protein 0-50 uM; temperature not stated
T2 sequence: T1 sequence with M13A

With “TGAAATGACGCATTGATTGTGTTCTTAATTATTATAAAACAGTTCCGAAACCAATATGAATAGGCTCCGGAACTAAATGATGTTCATACTTTAGTCTTAGTATATGTTGAACTATTCTTCTTCAATCTTTGTCGTTAAAATCGGACCAAGCTTCGT (double strand) [PvraSR (-121 to +26)]” the binding [1] was “binds” and the binding [2] was “binds more weakly”.
